Tests used:
[1] = biological target: T1, full-length recombinant GLK1 (Arabidopsis thaliana, UniProt Q9SIV3 1-420); assay: SEC
T1 sequence (looked up): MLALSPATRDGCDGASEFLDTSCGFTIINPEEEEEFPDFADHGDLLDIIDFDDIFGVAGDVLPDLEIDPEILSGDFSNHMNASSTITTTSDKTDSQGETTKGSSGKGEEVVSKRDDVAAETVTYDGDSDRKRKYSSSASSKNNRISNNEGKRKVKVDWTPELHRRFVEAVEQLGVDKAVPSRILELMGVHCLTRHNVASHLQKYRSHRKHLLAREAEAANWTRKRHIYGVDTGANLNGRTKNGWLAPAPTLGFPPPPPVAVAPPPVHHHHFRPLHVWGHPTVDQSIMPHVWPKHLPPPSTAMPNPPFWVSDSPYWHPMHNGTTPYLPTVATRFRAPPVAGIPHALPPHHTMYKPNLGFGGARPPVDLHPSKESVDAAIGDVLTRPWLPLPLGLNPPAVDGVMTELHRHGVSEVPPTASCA

[2] = biological target: T2, full-length recombinant GLK2 (Arabidopsis thaliana, UniProt Q9FFH0 1-386); assay: SEC
T2 sequence (looked up): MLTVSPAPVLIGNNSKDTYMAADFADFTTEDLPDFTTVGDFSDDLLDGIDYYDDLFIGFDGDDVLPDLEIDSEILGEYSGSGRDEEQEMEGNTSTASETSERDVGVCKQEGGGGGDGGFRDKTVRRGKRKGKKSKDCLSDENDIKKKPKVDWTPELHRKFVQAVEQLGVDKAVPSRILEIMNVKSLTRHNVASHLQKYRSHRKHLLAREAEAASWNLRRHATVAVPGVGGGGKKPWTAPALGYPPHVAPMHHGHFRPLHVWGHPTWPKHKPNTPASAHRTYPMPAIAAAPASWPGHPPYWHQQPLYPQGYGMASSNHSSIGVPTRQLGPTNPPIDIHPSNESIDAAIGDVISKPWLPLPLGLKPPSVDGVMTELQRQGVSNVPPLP

binding result [1]: binds
binding result [2]: binds
B1: full-length recombinant LSD1 (natural protein, Arabidopsis thaliana, UniProt P94077 1-189, looked up)
chain: MKVADMQDQLVCHGCRNLLMYPRGASNVRCALCNTINMVPPPPPPHDMAHIICGGCRTMLMYTRGASSVRCSCCQTTNLVPAHSNQVAHAPSSQVAQINCGHCRTTLMYPYGASSVKCAVCQFVTNVNMSNGRVPLPTNRPNGTACPPSTSTSTPPSQTQTVVVENPMSVDESGKLVSNVVVGVTTDKK
